The series deals with the molecule itself. As to the kind of experiment: size exclusion chromatography against protein standards (peaks at 80 kDa and 50 kDa; data not shown). Background: In gel filtration, larger molecules generally elute earlier.

B1: Phytase chimera PTRec 77 (enzyme)
chain: SDTAPAGFQLERVVILSRHGVRAPTKMTQTMRDVTPHQWPEWPVKLGYITPRGEHLISLMGGFYRERFQQQGLLPKDNCPTPDAVYVWADVDQRTRLTGQAFLDGIAPGCGLKVHYQADLEKVDPLFHPVEAGVCQLDSTQTHRAIEAQLGAPLSELSQRYAKPFAQMSEILNFTASPYCKSLQQQGKSCDFATFAANEVKVNQQGTKVSLSGPLALSSTLGEVFLLQEAQGMPQVAWGRITGEKEWRDLLSLHNAQFDLLQRTPYLAKHNGTPLLQTIAHALGSNITSRPLPDISPDNKILFIAGHDTNIANISGMLGMTWTLPGQPDNTPPGGALVFERWVDNAGKPYVSVNMVYQTLAQLHDQAPLTLQHPAGSVRLNIPGCSDQTPDGYCPLSTFSRLVSHSVEPACQLP
modifications: N-linked glycans, heterogeneous (hypermannosylation), from secretion by Pichia pastoris; sites not stated
notes: Recombinant chimera of phytase fragments from Hafnia alvei, Yersinia mollaretii and Citrobacter braakii; It was secreted by P. pastoris and purified; also called DJ 11
With B1, the binding result is on record as “no binding”.

Values taken from patent US20240158769A1 (RHEINISCH WESTF LISCHE TECHNISCHE HOCHSCHULE RWTH AACHEN, published 2024).
